Measurements published in paper PMC8427598, “Identification and Characterization of an Antennae-Specific Glutathione S-Transferase From the Indian Meal Moth” (Frontiers in Physiology, 2021).

Tested on: O=[N+]([O-])c1ccc(Cl)c([N+](=O)[O-])c1
Assay: purified protein
Details: 50 mM GSH, acetate-phosphate buffer pH 7.5 (b1, b25; b45 prints optimum pH 7.0), 35 °C

PiGSTd1 (Plodia interpunctella)
Km: 229.2 ± 18.05 µM
